Laboratory results: patent US20230119066A1

Assays:
[1] = biological target: mouse C-C Motif Chemokine Receptor 8 (mCCR8) (mouse) (UniProt P56484); experiment: cell-based or functional assay
[2] = biological target: mouse C-C Motif Chemokine Receptor 8 (mCCR8) (mouse) (UniProt P56484); experiment: flow cytometry on mouse thymic CD4+ cells
[3] = biological target: mouse C-C Motif Chemokine Receptor 8 (mCCR8) (mouse) (UniProt P56484); experiment: flow cytometry on mCCR8-expressing CHO cells
[4] = biological target: mouse C-C Motif Chemokine Receptor 8 (mCCR8) (mouse) (UniProt P56484); experiment: flow cytometry on activated mouse splenic CD4+ cells

mouse C-C Motif Chemokine Receptor 8 (mCCR8) (mouse), sequence (P56484 whole entry): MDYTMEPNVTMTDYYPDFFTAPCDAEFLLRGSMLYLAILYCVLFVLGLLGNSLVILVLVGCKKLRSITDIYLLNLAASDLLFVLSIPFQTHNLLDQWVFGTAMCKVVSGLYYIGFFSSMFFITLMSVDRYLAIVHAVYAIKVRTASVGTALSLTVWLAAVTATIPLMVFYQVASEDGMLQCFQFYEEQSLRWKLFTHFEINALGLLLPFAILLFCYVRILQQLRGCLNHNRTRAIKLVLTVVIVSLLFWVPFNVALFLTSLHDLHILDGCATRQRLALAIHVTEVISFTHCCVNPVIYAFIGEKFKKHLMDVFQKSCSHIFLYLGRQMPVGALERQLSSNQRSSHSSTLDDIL

EC50, crosslinking of mouse FcgRIV+ luciferase reporter effector cells [1]: 6.34 nM | IC50, blockade of Ca flux on mCCR8-expressing CHO cells [1]: 19.3 nM | EC50 [2]: 4 nM | EC50 [3]: 6.44 nM | EC50 [4]: 6.16 nM
Substance: anti-CCR8-mIgG2a, mouse IgG2a isotype of rat anti-mCCR8 mAb Clone SA214G2 (BioLegend) (antibody)
